Assay: soluble on expression in E. coli; label from the status in PepcDB or PDB records

Q: Which “soluble on expression in E. coli” value does the source give for “MMKQGMANSISMTWQLLCDEHGFTREHYNQLKKFSPETLREIIAEIASCHPSTSVLLRNKWLTPPEDILEQITREYERRIQNCPPFRSEKEAESWLNELSFAVIAPLYRVAPEQTEQVESFVLQLIAEQERVWELILTNDGYSWHCALYDILFHLVLRNMEDQPEHQKQRITKIFYEPDARLVAEEIKFRIQSLYDDEQKRALSELVNDFTSKE” here?
A: soluble

Q: With “MSILVKNNIHWVGQRDWEVRDFHGTEYKTLRGSSYNSYLIREEKNVLIDTVDHKFSREFVQNLRSEIDLADIDYIIINHAEEDHAGALTELMAQIPDTPIYCTANAIDSINGHHHHPEWNFKVVKTGDTLDIGNGKQLIFVETPMLHWPDSMMTYMTGDAVLFSNDAFGQHYCDERLFNDEVDQTELFEQCQRYYANILTPFSRLVTPKITEILGFNLPVDMIATSHGVVWRDNPTQIVELYLKWATDYQEDRITIFYDTMSNNTRMMADAIAQGINEVDPNVAVKIFNVARSDKNEILTNVFRSKGVLVGTSTMNNVMMPKIAGLVEEMTGLRFRNKRASAFGSHGWSGGAVDRLSTRLQDAGFEMSLSLKAKWRPDLDALELCRQHGRDIARQWALAPLPETTQQIAPVEETITCTAADLGPKMQCSVCQWIYDPALGEPLQDVAPGTPWNDVPDNFLCPECSLGKDVFDVLATEAK” as the sequence, how does the “soluble on expression in E. coli” value read?
A: not soluble

Q: With “MGSDKIHHHHHHMVRKKKEVAQVPSTSKEIKDTLWKSADKLRGSMDASQYKDVALGLVFLKYVSDSFEERQKEIRAELEGKGFDEEYILEDLADVDAYTSENVFWVASNARWDFLKKYSKGMDLEGKHKSIGKLIDEAMQQLMADNESLLGTLPQIYGKDNIDQRRLGELVDLFSSTYFASTKDKKARDLLGEVYEYFLDKFAKAEGKRGGEFYTPQPVVRTLVEILEPTEGRVYDPCCGSGGMFVQAEKFLEVTKRDRSNIAVYGQELNERTWRMAKMNLAIHAISSSGLGERWGDTFARDIHAGTKMDYIMANPPFNIKDWIRNEEDARWKYGVPPAKNANFAWIQHIISKLKDHGEAGVVMANGTMTSQSSGEGEIRKNMVEDDVVSCVIALPAQLFRGTGIPVCVWFFAKDKSAGVGGSVDRRGEVLLIDARQLGHMIDRTERAFSDEDITKIANAFRTWRGRKSAEGEYEDEAGFCKSATIEEIREAGYALTPGRYVGMPEAEEDDEPIDEKIARLTAELTAALDESARLDAVVREQLGRLK” as the sequence, how does the “soluble on expression in E. coli” value read?
A: not soluble

Q: Which “soluble on expression in E. coli” value does the source give for “MRKERRMIKLAIFDMDGTLTDEPSSWEYVHRRLHTDNHMNFRLYRNGFISYEEFFRSDVLAWLRMHPRLKKDDIAGILRDIKLRDGSSEVVNGLKERGLITAVVSGGISWLCDILNEYMQIDYNLSNVIATDEGGFVQPWGYIRVIPERKNIAVKSLQSMLHISKDETISIGDSMENGMIHINSSKAYIIGGKGRHGEIPLGNNIRNLLSYI” here?
A: not soluble

Q: Which “soluble on expression in E. coli” value does the source give for “MRIEVVNVSHIFHRGTPLEKKALENVSLVINEGECLLVAGNTGSGKSTLLQIVAGLIEPTSGDVLYDGERKKGYEIRRNIGIAFQYPEDQFFAERVFDEVAFAVKNFYPDRDPVPLVKKAMEFVGLDFDSFKDRVPFFLSGGEKRRVAIASVIVHEPDILILDEPLVGLDREGKTDLLRIVEKWKTLGKTVILISHDIETVINHVDRVVVLEKGKKVFDGTRMEFLEKYDPRFFTSKMLVMRRLVLKGEDPFSMSDDELLERVCNS” here?
A: soluble

Q: Which “soluble on expression in E. coli” value does the source give for “MKISIRHRYIAKIPALEVTTEEQKNEALPLIVYYHGWQSAKELSLTQARKLAHEGFRVILPDAMNHGERKTEPISTIPSITFWSSIQYNLIEFPVIIHHFHKLGLIKENWIGVGGVSMGGITTSALMTQHPEIQAAACLMGTPYPARYIQRVIQRAKEFAIFVPKDLPLLLSWVHQYDLSQTPERLQERPMLFWHGTEDEKIPYEDMADFEQLVSGKTYARNTQFITEIGERHLVKGETMDLVVDFFKEASKTLEK” here?
A: not soluble

Q: Which “soluble on expression in E. coli” value does the source give for “PAAQSCAARVGAPLVNDTVSISLSDHLTDMPTIESRLHAAAKEGFTITIYNPWSRKRRDNYEKCCEILLEHRDPETPVGVVHAAGREDEQVEIVELGELPELGETDLVDMTTTLLVGNEDTY” here?
A: not soluble

Q: Which “soluble on expression in E. coli” value does the source give for “MAESRRKYYFPDVTDEQWNDWHWQVLNRIETLDQLKKYVTLTAEEEEGVKESLKVLRMAITPYYLSLIDPENPNCPIRKQAIPTHQELVRAPEDQVDPLSEDEDSPVPGLTHRYPDRVLFLITDKCSMYCRHCTRRRFAGQKDASSPSERIDRCIDYIANTPTVRDVLLSGGDALLVSDERLEYILKRLREIPHVEIVRIGSRTPVVLPQRITPQLVDMLKKYHPVWLNTHFNHPNEVTEEAVEACERMANAGIPLGNQTVLLRGINDCTHVMKRLVHLLVKMRVRPYYIYVCDLSLGIGHFRTPVSKGIEIIENLRGHTSGYAVPTFVVDAPGGGGKIPVMPNYVVSQSPRHVVLRNYEGVITTYTEPENYHEECDCEDCRAGKHKEGVAALSGGQQLAIEPSDLARKKRKFDKN” here?
A: soluble

Q: Which “soluble on expression in E. coli” value does the source give for “MSLTKYHDLKNKVIVIAGGIKNLGALTAKTFALESVNLVLHYHQAKDSDTANKLKDELEDQGAKVALYQSDLSNEEEVAKLFDFAEKEFGKVDIAINTVGKVLKKPIVETSEAEFDAMDTINNKVAYFFIKQAAKHMNPNGHIITIATSLLAAYTGFYSTYAGNKAPVEHYTRAASKELMKQQISVNAIAPGPMDTSFFYGQETKESTAFHKSQAMGNQLTKIEDIAPIIKFLTTDGWWINGQTIFANGGYTTREGHHHHHH” here?
A: soluble

Q: For “MTRSRLKIDRHGKEEDAMDLIDTHQHLILRGKLGYAWTRGEPSLAGSFTRADYAALVEGSGVIGTIFMETGVDDGDYRAEARLVAGMVGEGTLPMFGQIASCRPETDQGFDAWLEECRHLKVVGFRRILQVMPDDTSRAENYRRNVRKIGKAGWPVDLCFHSRQLAIAAELVRACPDVRFMLDHCGTPDIAGNDFPAWSERMADLASLPNLFVKLSGVTAYCAPGQVTLESVRPYVETVLKLFGPARMVWGGDWPVVDLGSGLPEWIAMTREFLSTLSPDEQASIGHGNARRFYLATLEHHHHHH”, which “soluble on expression in E. coli” value is on record?
A: not soluble

Q: For “MGSDKIHHHHHHMILTKEKSLNAGPIYGTGEGVAHSKRWYVALVRMHHEKKVSEYLNKVGIENFVPVQKEIHQWSDRRKLVESVLLPMMVFVHADPKERMEVLNFTTVSRYMVMRGESSPAVIPDDQMARFRFMLDYSDETVCMNSSPLARGEKVQVIKGPLQGLVGELVNVDGKSKIAVRLNMLGCACVDMPIGYVEPIGEKN”, which “soluble on expression in E. coli” value is on record?
A: not soluble

Q: Which “soluble on expression in E. coli” value does the source give for “MGSDKIHHHHHHMKEGKANILIIDDISSNIFALENLLMTENRTFFKATSGDEGLKLALSKPVDLIILDVQMPEMDGFEVANMLKSNKRTKDIPILFASAELKEQKNMLKGLEEGAIDYLFKPLDPEITKAKVNMLIRLELQRKEMVEINSALEKSAILINNCLDIICTIDAETFKFEAFNVAMTNVLGYSSEEITSQSLLFFLQESDREFIKNLKKSDSNTGSFEIQIICKDSSIKWLQWNIVVKGGKWFSNARDITERKKKDDEIIRLNQDLHENIQQLENANKELESFSYSVSHDLRAPLRSINNYAQMLEDAFAAQMDEKSTRLLGNIKRNAFRMDTLIDDLLAFSRLGRKPVQKQSINMNDLVQHVYADMQGTFKGEFVLPALPDIDADYNLLKQVVVNLLSNAIKYSGKIEEPRIEVGYTKNPNAVVYYIKDNGAGFDMEYSDKLFGVFQRLHSTKEFEGTGVGLAIVKRIVEKHGGTIWAEAKVGEGATFYFSLPAPV” here?
A: not soluble

Q: For “MSLAHEMRDGSSRGLRIDFHVHLGVYADHKPWVTEWIKQSQPDPGEYDAYIERYSDPGAFEELLAAEGVDYACVLAELCPITTGICSNEQVEAFCKGRKRLIPFCSINPHLTTDLGGELRRLVETEGFRGLKLYPSYQHYYLNDPRVYPLYQAAQELGIPVLIHTGSSVFKGTRIKYCDPIHLDDVANDFPSLNLVMAHSGRGFWYDRAFFLSKLHSNLYMEVSGLPPSKLMTYFPELARNTDKVIFGSDWPGASQIKRNMDAIGALPLPAEGVEKILGGNAARLLNFEGHHHHHH”, which “soluble on expression in E. coli” value is on record?
A: soluble

Q: Which “soluble on expression in E. coli” value does the source give for “MPNDMTHIDKIQALAFSIGKKMQTELLEQMQATGLTPPQFYILKILDHYGASRATTLAKKMYVKPSAITVMIDRLIDQELVERYHDKDDRRVVIIELTKKGKARVEEAMTARNEHIAKYFSHLELQEREDLLRLFEKLETIICGTQEKKENN” here?
A: not soluble

Q: For “GMMNDYLNFLDGRVSVRRFDPDAVLPNDLIKDMLEHASYAPSGNNFQPWRVVVVKNKNKQEDLKKLAALQPQVATASAVFLLFGDENAYDLTWWQEFHVQKGIITKDEAAARAERIRQYFDLHPEDKETQGLRLDVGLFAMNLMQVVRVYGYDSVPMRGVDFDAIKTYLDMPNGWEPILMLPVGKALQAGNPHVRKSVAEFAEIIE”, which “soluble on expression in E. coli” value is on record?
A: soluble

Q: For “SSAEQSFLFSREEADTLRLKVEELEGERSRLEEEKRMLEAQLERRALQGDYDQSRTKVLHMSLNPTSVARQRLREDHSQLQAECERLRGLLRAMERGGTV”, which “soluble on expression in E. coli” value is on record?
A: soluble

Q: For “MGSDKIHHHHHHMTGLTEDLFGELLPPASPPQACVAGGGAPSPDKASRGKSVLPARPDPAIDALARRLPPNLYLGTSSWSYNGWNGLVYDGEYSDNLLSRKGLAAYSRHPLLRAAGIDRGFYGPIPLADYLSYAAQVPEQFRFLVKAPASVCDAWLRGSDGVGRLANAAFLDAEIAIRDFITPATSGLGAKCGPLLFQLSPLGSLANDAAAFLDRLDGFLSALPPLDPSITPHACYAVEMRDPVLLTPRYIKLLRRYGVRFCLSARDRLPPVHRQASAQALMDAEAPGPLVLRWMLHAGRPYEVAESIYAPFNRLVDEDPETRDAIADLVVRTLNAGQSATVIISNKAEGSAPLTCIRLAEAIAARL”, which “soluble on expression in E. coli” value is on record?
A: not soluble

Q: With “RPKLTDGVQSGDVQGDRALVWSRTDRPARMIVEWDTRSVFSEPRRLVSPVTDERLDYTARIDLRGLPADQSIFYRVRFEDARDGSLSKPWFGHLRSAPSEARNIRFVWSGDTCGQGFGINPDIGGMRIYEAMRRRQPDFFLHSGDTIYADGPIPERIETESGRIWRNRVTEAKSKVAETLDEFRGNYRYNLLDDNLRRFNAEVPQIWQWDDHETTNNWSSSKQLDERYQVKDIDVLAARARQAFLEYAPLRFQRQGRDGRIYRKVAYGPLLDVFVLDMRSYRGGNSANLQARRSAATDFLGREQLQWLKRELRGSRAQWKVIAADMPIGLCVPDGKDAQGRDRWEAIANGNDGAALGRELEIADLLRFVQRAGVRNTVWLTADVHYCAAHHYSPERAAFKDFAPFWEFVAGPLNAGSFGPNALDGTFGPQVMFQKAPLVQNSSPFAGYQFFGEVEIDAQSRALTVTLRDLDGEPVFSQELQPD” as the sequence, how does the “soluble on expression in E. coli” value read?
A: not soluble
